Assay results reported in the supplement of paper PMC10126150.
± gives the standard deviation of the averaged measurements.

Test system: ATP
Assay: switch fluorescence ratio, 500 uM ATP over buffer (Cy3 cluster intensity, sum of 5 cycles each) (fold (ratio)); higher = stronger signal-on switching upon ATP binding; sequences stand for … in TCGTCGGCAGCGTCAGATGTGTATAAGAGACAGTTTTTTTTTTTTTTTTTTTTTTTTT…TC
Conditions: aptamer strand: ATP DNA aptamer (quencher-CACCTGGGGGAGTATTGCGGAGGAAGG + anchor), 100 nM annealed; ATP concentration: 500 uM
In short: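 The fluorescence ratio divides summed target-cycle Cy3 intensity by summed buffer-cycle Cy3 intensity for each cluster and is averaged per switch-domain sequence. Cy3-labelled switching-strand clusters on a modified Illumina MiSeq flow-cell were annealed to 100 nM quencher-labelled ATP aptamer, then imaged in selection buffer and again after 15 min with 500 uM ATP at 22 °C. Five such cycles were run, with NaOH stripping and re-annealing between them, and clusters outside 100-1000 RFU were excluded.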
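Further: ATP exposure 15 min at 22 °C before imaging.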

| Sequence | switch fluorescence ratio |
| --- | --- |
| CGGCGTGTAT | 1 ± 0.055 |
| CGGCTAGGGT | 0.998 ± 0.021 |
| CGGCTAGTCT | 0.993 ± 0.13 |
| CGGCTATGTT | 0.9712 ± 0.0027 |
| CGGCTCCTCA | 1.08 ± 0.045 |
| CGGCTGACTG | 1.05 ± 0.019 |
| CGGCTGGGCT | 0.988 ± 0.024 |
| CGGCTTAAGG | 1.01 ± 0.019 |
| CGGCTTAATA | 1.02 ± 0.019 |
| CGGCTTGTTG | 1.01 ± 0.017 |
| CGGGAAAGTT | 1.02 ± 0.04 |
| CGGGAACTCT | 1.013 ± 0.0054 |
| CGGGAATAAA | 0.993 ± 0.016 |
| CGGGAATCGA | 1 ± 0.012 |
| CGGGACAGTG | 0.957 ± 0.024 |
| CGGGACGTGT | 0.969 ± 0.021 |
| CGGGAGAAAT | 1.24 ± 0.34 |
| CGGGAGAGGA | 0.988 ± 0.033 |
| CGGGAGAGGT | 0.988 ± 0.011 |
| CGGGAGCTGT | 1.01 ± 0.072 |
| CGGGAGGGGC | 1.02 ± 0.058 |
| CGGGAGGGGG | 1.06 ± 0.07 |
| CGGGAGGTGC | 1.02 ± 0.033 |
| CGGGAGTTCG | 0.992 ± 0.077 |
| CGGGATACGG | 1.19 ± 0.065 |

| Sequence | switch fluorescence ratio |
| --- | --- |
| CGGGATAGGC | 1.12 ± 0.02 |
| CGGGATATAT | 0.994 ± 0.028 |
| CGGGATCCAG | 1.01 ± 0.0094 |
| CGGGCAATTT | 1.38 ± 0.1 |
| CGGGCAGGTT | 1.11 ± 0.18 |
| CGGGCATATA | 1.1969 ± 8.5e-05 |
| CGGGCATCGA | 0.995 ± 0.061 |
| CGGGCATGCT | 1.04 ± 0.034 |
| CGGGCCGGGC | 0.983 ± 0.029 |
| CGGGCCGGGG | 1.02 ± 0.033 |
| CGGGCGCGGA | 1.01 ± 0.048 |
| CGGGCGCGTG | 0.978 ± 0.053 |
| CGGGCGGGAT | 1.04 ± 0.029 |
| CGGGCTAACA | 0.972 ± 0.017 |
| CGGGCTAAGA | 1.02 ± 0.041 |
| CGGGCTTGGT | 1.01 ± 0.032 |
| CGGGCTTTAA | 0.995 ± 0.026 |
| CGGGCTTTAT | 1.006 ± 0.0073 |
| CGGGCTTTGG | 1.01 ± 0.035 |
| CGGGGAAAGT | 0.996 ± 0.015 |
| CGGGGACAGA | 0.984 ± 0.041 |
| CGGGGACGGC | 0.98 ± 0.025 |
| CGGGGACTTC | 1.02 ± 0.019 |
| CGGGGATTGA | 0.97 ± 0.03 |
| CGGGGCAAGG | 0.984 ± 0.057 |

| Sequence | switch fluorescence ratio |
| --- | --- |
| CGGGGCACCA | 0.99 ± 0.032 |
| CGGGGCAGGG | 1.01 ± 0.062 |
| CGGGGCGCGC | 1.02 ± 0.044 |
| CGGGGCGGTG | 1.02 ± 0.037 |
| CGGGGCGTGT | 0.988 ± 0.046 |
| CGGGGCTAGC | 1.02 ± 0.026 |
| CGGGGCTATG | 0.997 ± 0.0053 |
| CGGGGCTGCT | 1.01 ± 0.018 |
| CGGGGCTGTG | 1 ± 0.013 |
| CGGGGGAAAA | 1.03 ± 0.054 |
| CGGGGGAAAG | 1.01 ± 0.041 |
| CGGGGGAAGT | 0.981 ± 0.068 |
| CGGGGGACAG | 1.03 ± 0.066 |
| CGGGGGACTA | 0.985 ± 0.015 |
| CGGGGGAGCA | 1.01 ± 0.017 |
| CGGGGGCAAG | 1.07 ± 0.016 |
| CGGGGGCGGT | 0.998 ± 0.03 |
| CGGGGGGA | 1.39 ± 0.54 |
| CGGGGGGAGA | 1.03 ± 0.061 |
| CGGGGGGCCA | 1.016 ± 0.0048 |
| CGGGGGGGAG | 1.01 ± 0.067 |
| CGGGGGGGGC | 1.02 ± 0.044 |
| CGGGGGTCCG | 0.926 ± 0.087 |
| CGGGGGTGTA | 0.995 ± 0.026 |
| CGGGGGTGTG | 0.993 ± 0.035 |

| Sequence | switch fluorescence ratio |
| --- | --- |
| CGGGGTAGTG | 0.999 ± 0.02 |
| CGGGGTATTC | 0.964 ± 0.078 |
| CGGGGTGAGA | 0.9809 ± 0.0069 |
| CGGGGTGCAC | 1.05 ± 0.023 |
| CGGGGTGTCT | 1.02 ± 0.071 |
| CGGGGTGTGT | 1.01 ± 0.023 |
| CGGGGTGTTT | 1.012 ± 0.0055 |
| CGGGGTTCGT | 0.983 ± 0.028 |
| CGGGGTTGAA | 0.998 ± 0.03 |
| CGGGGTTTGA | 1.02 ± 0.028 |
| CGGGGTTTGT | 1.01 ± 0.011 |
| CGGGGTTTTT | 1.03 ± 0.12 |
| CGGGTAAGT | 1 ± 0.022 |
| CGGGTAGGTA | 1 ± 0.012 |
| CGGGTCCGTA | 0.9751 ± 0.004 |
| CGGGTCGGGG | 0.998 ± 0.025 |
| CGGGTCTTGG | 1.03 ± 0.023 |
| CGGGTGAAGG | 1.06 ± 0.049 |
| CGGGTGGCAG | 1.01 ± 0.061 |
| CGGGTGGCGG | 0.994 ± 0.012 |
| CGGGTGGTGC | 1.014 ± 0.0086 |
| CGGGTGGTTC | 0.994 ± 0.012 |
| CGGGTGTAAG | 1.01 ± 0.033 |
| CGGGTGTCAC | 1.06 ± 0.024 |
| CGGGTGTGTC | 1.045 ± 0.0042 |
